# Results reported in patent US20190241654A1 (published 2019).
# Assays:
# CD47 on CCRF-CEM cells [1] = target: T1, CD47 on CCRF-CEM cells (human, UniProt Q08722 19-323); assay: flow cytometry on antibody-opsonized CCRF-CEM cells, anti-human Alexa 647 secondary, median fluorescence, sigmoidal fit; Donor 1
# T1 construct: Target is CD47 carried by the CD47-positive cell line CCRF-CEM; also called Cluster of Differentiation 47; integrin-associated protein
# Description: (§1) Phagocytosis was assayed by serum starving the macrophages in incomplete AIM V media for two hours. During this incubation period, target cells (CCRF-CEM) from two donors (donor 1 and donor 2) were labeled with CSFE (Invitrogen, #C34554) at […] for 15 minutes at room temperature. Cells were rinsed twice with PBS (Hyclone, #SH30028.02) and resuspended at 8×10⁵/mL in AIM V media. Antibody dilutions were prepared at 0.01 ug/ml to 10 ug/ml in half log dilutions and then incubated with the target cell line for 10 minutes at room temperature (a small portion is retained for flow cytometric analysis/cell binding), after which 100 μL of target cell/antibody suspension was added to the macrophage plates. Samples were treated in triplicate and with appropriate isotype controls.
# (§2) Samples were incubated for 30 minutes at room temperature, rinsed 2× and then resuspended in FACS buffer and analyzed on the Attune. The EC50 values refer to the concentration that gives half the maximum binding measured as median fluorescent intensity, and was determined by non-linear fit of a sigmoidal dose response within the GraphPad Prism software.
# CD47 on CCRF-CEM cells [2] = target: T1, CD47 on CCRF-CEM cells; assay: cell-based or functional assay
# CD47 on CCRF-CEM cells [3] = target: T1, CD47 on CCRF-CEM cells; assay: flow cytometry on antibody-opsonized CCRF-CEM cells, anti-human Alexa 647 secondary, median fluorescence, sigmoidal fit; Donor 2
# Description: as §1, §2
# [4] = target: T2, recombinant extracellular domain of CD47 (UniProt Q08722 19-139, limits assumed); assay: SPR; antibody captured on anti-human Fc, CD47-ECD flowed 0-100 nM; 1:1 Langmuir
# T2 construct: extracellular domain; Analyte flowed over the captured antibodies in SPR; also called CD47-ECD
# Description: The binding kinetics of anti-CD47 antibodies to the recombinant extracellular domain of CD47 were determined by using surface Plasmon resonance (SPR, MASS-1, Sierra Sensors; T200, Biacore, GE Healthcare Life Sciences). Anti-human Fc (P/N: BR-1008-39 (GE Healthcare Life Sciences)) was immobilized on a High Capacity Amine chip (P/N: SPR-AS-HCA, Sierra sensors) or CM5-S Chip (GE Healthcare Life Sciences). CD47 antibodies were captured on Human IgG FC and CD47-ECD was flowed over the surface at various concentrations ranging from zero (for double referencing) to 100 nM. In order to determine KD's, antibodies were ranked using a 1:1 Langmuir model.
# T2 sequence (Q08722 19-139 limits assumed): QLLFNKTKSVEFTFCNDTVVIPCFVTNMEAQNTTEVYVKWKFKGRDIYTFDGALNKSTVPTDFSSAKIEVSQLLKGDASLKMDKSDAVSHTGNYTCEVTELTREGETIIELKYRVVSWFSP
# T1 sequence (Q08722 19-323): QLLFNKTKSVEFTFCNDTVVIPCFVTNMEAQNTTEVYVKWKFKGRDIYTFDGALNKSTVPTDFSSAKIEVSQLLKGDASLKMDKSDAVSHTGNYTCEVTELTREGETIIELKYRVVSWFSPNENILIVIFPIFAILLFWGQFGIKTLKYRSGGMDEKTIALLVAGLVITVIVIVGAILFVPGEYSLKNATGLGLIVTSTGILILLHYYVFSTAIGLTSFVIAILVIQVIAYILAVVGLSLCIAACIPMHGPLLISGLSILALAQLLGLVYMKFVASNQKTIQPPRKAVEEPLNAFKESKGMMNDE
EC50 (CD47 on CCRF-CEM cells [1]) [µg/mL],"Phagocytosis EC50 (ug/mL), Donor 1 (CD47 on CCRF-CEM cells [2]) [µg/mL]","Phagocytosis EC50 (ug/mL), Donor 2 (CD47 on CCRF-CEM cells [2]) [µg/mL]",EC50 (CD47 on CCRF-CEM cells [3]) [µg/mL],Kd [4] [nM],koff [4] [s⁻¹],kon [4] [M⁻¹ s⁻¹],Binder
0.17,0.68,1.82,0.16,–,–,–,"Ab356/Ab1120 (HC Ab356, LC Ab1120) anti-CD47 antibody (antibody, V domains shown, FR and CDR L2 variant of AbParental) VH: QMQLVQSGAEVKKPGSSVKVSCKASGFNIKDYYLHWVRQAPGKGLEWMGWIDPDQGDTEYAQKFQGRVTITRDRSTSTAYMELRSLRAEDTAVYYCNAAYGSSSYPMDYWGQGTTVTVSS VL: NIQMTQSPSSLSASVGDRVTITCRASQDIHRYLSWFQQKPGKVPKHLIYRYVRFVDGVPSRFSGSGSGTEFTLTISSLQPEDFATYYCLQYDEFPYTFGGGTKVEIK"
–,–,–,–,0.236,0.00187,7.94e+06,"AbParental (parental anti-CD47 antibody) (antibody, human IgG4 S228P, kappa, V domains shown, also called Parental LC-HC; parental antibody) VH: QMQLVQSGAEVKKTGSSVKVSCKASGFNIKDYYLHWVRQAPGQALEWMGWIDPDQGDTEYAQKFQDRVTITRDRSMSTAYMELSSLRSEDTAMYYCNAAYGSSSYPMDYWGQGTTVTVSS VL: NIQMTQSPSAMSASVGDRVTITCKASQDIHRYLSWFQQKPGKVPKHLIYRANRLVSGVPSRFSGSGSGTEFTLTISSLQPEDFATYYCLQYDEFPYTFGGGTKVEIKR"
0.16,12.8,–,–,–,–,–,"Ab356/Ab1129 (HC Ab356, LC Ab1129) anti-CD47 antibody (antibody, V domains shown, FR and CDR L2 variant of AbParental; The label order is HC/LC although the head says 'LC/HC'; r466 is used) VH: QMQLVQSGAEVKKPGSSVKVSCKASGFNIKDYYLHWVRQAPGKGLEWMGWIDPDQGDTEYAQKFQGRVTITRDRSTSTAYMELRSLRAEDTAVYYCNAAYGSSSYPMDYWGQGTTVTVSS VL: NIQMTQSPSSLSASVGDRVTITCRASQDIHRYLSWFQQKPGKVPKHLIYRHIRFVDGVPSRFSGSGSGTEFTLTISSLQPEDFATYYCLQYDEFPYTFGGGTKVEIK"
0.33,0.73,2.01,0.17,–,–,–,"Ab480/Ab1120 (HC Ab480, LC Ab1120) anti-CD47 antibody (antibody, V domains shown, FR and CDR L2 variant of AbParental) VH: QMQLVQSGAEVKKPGSSVKVSCKASGFNIKDYYLHWVRQAPGKGLEWMGWIDPDQGDTEYAQKFQGRVTITRDRSTSTAYMELRSLRAEDTAVYYCNAAYGSSSYPMDYWGQGTLVTVSS VL: NIQMTQSPSSLSASVGDRVTITCRASQDIHRYLSWFQQKPGKVPKHLIYRYVRFVDGVPSRFSGSGSGTEFTLTISSLQPEDFATYYCLQYDEFPYTFGGGTKVEIK"
0.17,1.07,1.83,0.22,–,–,–,"Ab356/Ab1122 (HC Ab356, LC Ab1122) anti-CD47 antibody (antibody, V domains shown, FR and CDR L2 variant of AbParental; The label order is HC/LC although the head says 'LC/HC'; r445 is used) VH: QMQLVQSGAEVKKPGSSVKVSCKASGFNIKDYYLHWVRQAPGKGLEWMGWIDPDQGDTEYAQKFQGRVTITRDRSTSTAYMELRSLRAEDTAVYYCNAAYGSSSYPMDYWGQGTTVTVSS VL: NIQMTQSPSSLSASVGDRVTITCRASQDIHRYLSWFQQKPGKVPKHLIYRYERFVDGVPSRFSGSGSGTEFTLTISSLQPEDFATYYCLQYDEFPYTFGGGTKVEIK"
0.19,0.48,1.29,0.16,–,–,–,"Ab356/Ab1121 (HC Ab356, LC Ab1121) anti-CD47 antibody (antibody, V domains shown, FR and CDR L2 variant of AbParental; The label order is HC/LC although the head says 'LC/HC'; the row in running number order (r442) is used) VH: QMQLVQSGAEVKKPGSSVKVSCKASGFNIKDYYLHWVRQAPGKGLEWMGWIDPDQGDTEYAQKFQGRVTITRDRSTSTAYMELRSLRAEDTAVYYCNAAYGSSSYPMDYWGQGTTVTVSS VL: NIQMTQSPSSLSASVGDRVTITCRASQDIHRYLSWFQQKPGKVPKHLIYRYIRFVDGVPSRFSGSGSGTEFTLTISSLQPEDFATYYCLQYDEFPYTFGGGTKVEIK"
0.11,0.66,0.96,0.15,–,–,–,"Ab356/Ab1127 (HC Ab356, LC Ab1127) anti-CD47 antibody (antibody, V domains shown, FR and CDR L2 variant of AbParental; The label order is HC/LC although the head says 'LC/HC'; r460 is used) VH: QMQLVQSGAEVKKPGSSVKVSCKASGFNIKDYYLHWVRQAPGKGLEWMGWIDPDQGDTEYAQKFQGRVTITRDRSTSTAYMELRSLRAEDTAVYYCNAAYGSSSYPMDYWGQGTTVTVSS VL: NIQMTQSPSSLSASVGDRVTITCRASQDIHRYLSWFQQKPGKVPKHLIYRESRFVDGVPSRFSGSGSGTEFTLTISSLQPEDFATYYCLQYDEFPYTFGGGTKVEIK"
